# Results reported in patent US12186374B2 (Sanofi-Aventis Deutschland GmbH, priority 2014, dated 2025).
# How the values were obtained:
# [1] = system: patients with Type 2 diabetes mellitus (T2DM); design: species or system human; conditions: in vivo
# From the text: (§1) In case the investigator or the patient recognizes any signs of local intolerability at injection site this should be recorded on the standard AE page in the e-CRF. AEs related to local intolerability at the injection site will be identified by searching the term “injection site” in either the PTs coded from the investigator reported terms or the PTs coded from the ARAC diagnosis terms. The number (%) of patients with related events will be summarized by treatment group.
# [2] = system: patients with T2DM; design: species or system human; conditions: in vivo
# From the text: as §1
# [3] = system: patients with Type 2 diabetes mellitus (T2DM); assay: Body weight change from baseline to Week 30 (Example 2); assay type: in vivo, human
# From the text: Body weight should be obtained with the patient wearing undergarments or very light clothing and no shoes, and with an empty bladder. The same scale should be used throughout the study, and calibrated on a regular basis as recommended by the manufacturer.
# Similar MMRM method or ANCOVA was applied on continuous secondary efficacy endpoints and Cochran-Mantei-Haenszel method stratified by randomization strata was applied on categorical efficacy endpoints.
substance,measurement,setting,value
Gly(A21)-Arg(B31)-Arg(B32)-human insulin [Insulin Glargine],Any injection site reactions,[1],8 (1.7%) Number (%)
same,Injection site bruising,[1],4 (0.9%) Number (%)
same,Injection site discomfort,[1],0 Number (%)
same,Injection site erythema,[1],0 Number (%)
same,Injection site haemorrhage,[1],2 (0.4%) Number (%)
same,Injection site irritation,[1],0 Number (%)
same,Injection site nodule,[1],0 Number (%)
same,Injection site pain,[1],2 (0.4%) Number (%)
same,Injection site papule,[1],0 Number (%)
same,Injection site rash,[1],0 Number (%)
same,"Injection site reactions, % of patients",[1],1.7%
same,Injection site reactions: PTs coded from the ARAC diagnosis terms,[1],0 Number (%)
same,Injection site reactions: PTs coded from the investigator reported terms,[1],8 (1.7%) Number (%)
same,Injection site swelling,[1],1 (0.2%) Number (%)
same,Injection site warmth,[1],1 (0.2%) Number (%)
same,% of patients experiencing injection site reactions: Any injection site reactions,[2],0.5%
same,% of patients experiencing injection site reactions: Injection site hypertrophy,[2],0.3%
same,% of patients experiencing injection site reactions: Injection site reaction,[2],0.3%
same,% of patients experiencing injection site reactions: PTs coded from the investigator reported terms,[2],0.5%
same,Number of patients experiencing injection site reactions: Any injection site reactions,[2],2
same,Number of patients experiencing injection site reactions: Injection site hypertrophy,[2],1
same,Number of patients experiencing injection site reactions: Injection site reaction,[2],1
same,Number of patients experiencing injection site reactions: PTs coded from the investigator reported terms,[2],2
same,Patients who experienced injection site reactions,[2],2 patients
same,LS mean body weight change from baseline to Week 30,[3]; Example 2,+1.10 kg
same,"Body weight, change from baseline to Week 30, LS Mean (SE)","[3]; MMRM, mITT population",−1.11 (0.183) kg
same,"Body weight, Week 30, Mean (SD)",[3]; mITT population,90.68 (16.03) kg
same,"Body weight, Week 30, Median",[3]; mITT population,89.00 kg
